Results taken from doi:10.1101/2021.12.01.470705 (bioRxiv, 2021).

T1: WWOX WW1 domain (amino acid 16-50) (human, UniProt Q9NZC7 16-50)
T1 chain (looked up): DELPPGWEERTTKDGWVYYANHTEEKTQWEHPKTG

T2: WWOX tandem WW1-WW2 domains (amino acid 16-91) (human, UniProt Q9NZC7 16-91)
T2 sequence (looked up): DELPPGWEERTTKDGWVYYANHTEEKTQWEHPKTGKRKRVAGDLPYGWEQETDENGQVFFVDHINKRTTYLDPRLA

T3: WWOX WW2 domain (amino acid 57-91) (human, UniProt Q9NZC7 57-91)
T3 chain (looked up): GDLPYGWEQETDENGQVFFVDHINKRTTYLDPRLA


How the values were obtained:
[1] = target: WWOX tandem WW1-WW2 domains (amino acid 16-91) (human) (UniProt Q9NZC7); test: ITC
[2] = target: WWOX tandem WW1-WW2 domains (amino acid 16-91) (human) (UniProt Q9NZC7); test: NMR titration
[3] = target: T1, WWOX WW1 domain (amino acid 16-50); test: ITC
[4] = target: T2, WWOX tandem WW1-WW2 domains (amino acid …); test: ITC
[5] = target: T3, WWOX WW2 domain (amino acid 57-91); test: ITC

| Molecule | Kd [1] | further results |
| --- | --- | --- |
| ErbB4 double-motif peptide PY1PY2 (natural linker) | 14 µM | apparent KD, WW2 site [2]: 1000 µM |
| ErbB4 single-motif peptide PY1 | > 100 µM |  |
| ErbB4 single-motif peptide PY2 | > 100 µM |  |
| PY3AY3, PY3PY3 peptide with PP-to-AA mutations in the C-terminal motif | 27 µM |  |
| KPGTVLPPPPYRHRN (peptide, UniProt Q15303 1291-1305, looked up) [ErbB4 1291-1305 (PY3) single-motif peptide] |  | Kd [3]: 78 µM; Kd [4]: 30 µM; Kd [5]: > 200 µM |
